Patent US20250268941A1 (AUTOLUS, published 2025)

Tests used:
[1] = biological target: BCMA on the cell surface (SupT1.BCMAhigh, SupT1.BCMAlow, MM.1s, JeKo-1 cells) (human) (UniProt Q02223); test: cell-based or functional assay
soluble BCMA ectodomain [2] = biological target: T1, soluble BCMA ectodomain (human, UniProt Q02223 1-54); test: SPR, BCMA 50 nM serially diluted to 0.19 nM
T1 construct: extracellular domain
T1 sequence (looked up): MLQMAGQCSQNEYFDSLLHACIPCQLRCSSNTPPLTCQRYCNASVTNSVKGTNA
Protocol: (§1) FIG. 6—Surface plasmon resonance sensogram of binding kinetics between D8 IgG and BCMA is shown. BCMA starting concentration was 50 nM with serial dilutions to 0.19 nM.
(§2) D8 IgG binding to soluble BCMA ectodomain was also studied using surface plasmon resonance (FIG. 6).

soluble BCMA ectodomain [3] = biological target: T1, soluble BCMA ectodomain; test: SPR, soluble BCMA ectodomain as analyte
Protocol: as §1, §2

BCMA-Avi = biological target: T2, BCMA-Avi (Homo sapiens, UniProt Q02223, biotinylated at the AviTag (implied by detection with streptavidin-APC); position not given); test: flow cytometry of live CD3+ T cells transduced with CAT-41BB-ζ alone, stained with BCMA-AviTag plus streptavidin-APC; the staining concentration is not given [a]
T2 construct: soluble recombinant staining reagent; also called BCMA-AviTag; BCMA-Avi/Strep-APC
T2 sequence (recombinant BCMA with AviTag, looked up): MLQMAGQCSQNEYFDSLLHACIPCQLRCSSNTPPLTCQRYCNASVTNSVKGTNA

Molecule: LCAR-B38M CAR
- viable SupT1 BCMAlow targets remaining, 24 h co-culture, E:T 1:8 [1]: 25.5%

Molecule: bb2121 CAR
- viable SupT1 BCMAlow targets remaining, 24 h co-culture, E:T 1:8 [1]: 21.1%

B1: D8 IgG (antibody, V domains shown)
VH: EVQLVESGGGLVQPGRSLKLSCAASGFIFSDYNMAWVRQAPKKGLEWVATIIYDGSSTNHGDSVKGRFTISRDNAKSTLYLQMDSLRSEDTATYYCATRPGPFAYWGQGTLVTVS
VL: DVVLTQTPPTLSATIGQSVSISCRSSQSLLHSNGNTYLHWLLQRPGQSPQFLIYLVSGLGSGVPNRFSGSGSGTDFTLKISGVEAEDLGIYYCVHGTHAWTVGGGTKLELK
- koff (soluble BCMA ectodomain [2]): 0.00433 s⁻¹
- Kd (soluble BCMA ectodomain [3]): 0.126 nM

B2: CAT-41BB-ζ CAR (other)
chain: QVQLQQSGPELVKPGASVKISCKASGYAFSSSWMNWVKQRPGKGLEWIGRIYPGDEDTNYSGKFKDKATLTADKSSTTAYMQLSSLTSEDSAVYFCARSLLYGDYLDYWGQGTTLTVSSGGGGSGGGGSGGGGSQIVLTQSPAIMSASPGEKVTMTCSASSSVSYMHWYQQKSGTSPKRWIYDTSKLASGVPDRFSGSGSGTSYFLTINNMEAEDAATYYCQQWNINPLTFGAGTKLELKRSDPTTTPAPRPPTPAPTIASQPLSLRPEACRPAAGGAVHTRGLDFACDIYIWAPLAGTCGVLLLSLVITLYCKRGRKKLLYIFKQPFMRPVQTTQEEDGCSCRFPEEEEGGCELRVKFSRSADAPAYQQGQNQLYNELNLGRREEYDVLDKRRGRDPEMGGKPRRKNPQEGLYNELQKDKMAEAYSEIGMKGERRRGKGHDGLYQGLSTATKDTYDALHMQALPPR
notes: Expressed on primary human T cells; also called CAT19 CAR; CAT19CAR using Campana architecture
- binding result (BCMA-Avi): no binding
